Data on one molecule can be found in paper PMC5932034.

The target in this test is T1, FlhA^C−link (longer FlhA^C construct that includes the linker) (Salmonella enterica serovar Typhimurium ST313), P40729.
T1 chain: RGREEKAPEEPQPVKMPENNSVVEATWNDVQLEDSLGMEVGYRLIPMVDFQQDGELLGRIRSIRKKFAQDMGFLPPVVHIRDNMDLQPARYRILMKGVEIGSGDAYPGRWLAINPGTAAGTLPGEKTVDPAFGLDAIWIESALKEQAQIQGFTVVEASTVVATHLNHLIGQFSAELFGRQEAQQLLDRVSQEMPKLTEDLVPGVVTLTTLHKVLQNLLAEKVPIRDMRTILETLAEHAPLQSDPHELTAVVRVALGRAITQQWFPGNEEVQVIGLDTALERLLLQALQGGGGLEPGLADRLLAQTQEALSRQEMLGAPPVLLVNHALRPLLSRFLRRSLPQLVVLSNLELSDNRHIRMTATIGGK
Nature of the test: SEC-MALS; Superdex 200 10/300 GL; 50 mM NaPi pH 6.8, 0.1 M NaCl, 0.05% NaN3; samples at 0.05–0.5 mM; room temperature. The conditions noted are these: remark: other sources report otherwise. In general terms: SEC sorts molecules by how far they enter the pores of the column.

B1: FlhA^C−link (longer FlhA^C construct that includes the linker), P40729 328-692 (domain or fragment)
chain: RGREEKAPEEPQPVKMPENNSVVEATWNDVQLEDSLGMEVGYRLIPMVDFQQDGELLGRIRSIRKKFAQDMGFLPPVVHIRDNMDLQPARYRILMKGVEIGSGDAYPGRWLAINPGTAAGTLPGEKTVDPAFGLDAIWIESALKEQAQIQGFTVVEASTVVATHLNHLIGQFSAELFGRQEAQQLLDRVSQEMPKLTEDLVPGVVTLTTLHKVLQNLLAEKVPIRDMRTILETLAEHAPLQSDPHELTAVVRVALGRAITQQWFPGNEEVQVIGLDTALERLLLQALQGGGGLEPGLADRLLAQTQEALSRQEMLGAPPVLLVNHALRPLLSRFLRRSLPQLVVLSNLELSDNRHIRMTATIGGK
As usually defined, the stoichiometry N is a count of units in the complex or per binding partner. Consider B1, for which the stoichiometry N was 2.
